This series can be described thus: soluble fraction after stress (log2 fold change); higher = more stays soluble; pooled small domains, quantitative proteomics. To be noted: stress: pH 4. A digest of the protocol: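 Following acid stress at pH 4, the amount of each small protein domain still soluble was measured in pooled custom libraries by high-throughput quantitative proteomics. Its fold change, on a log2 scale, is higher when more of the domain stayed soluble. This fold change is taken as a measure of aggregation propensity.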

Bounds are passed on as bounds.

Turning to “HMETLSVRERMTSIISLLNKHEDIEFSKLFNISEGRLGVVVTFLALLELVKESLVDVIQNQPMSKLYIGKK”, the “soluble fraction (log2)” value was -0.376.

With “HMETLTPQEHKVLLLAVKGRTNGEIASELGIAQNTVKNHLAHIYAKMGVGNRTELASEYLRRIH”, the “soluble fraction (log2)” value was found to be 0.0578. Then “HMETTEELISKTVPISYADMAALTGILDGVKSARGDIQVDDRTSTIIIHDIQSSIDEMMRLIKILD”, with -1.13; and “HMETTMVEIKAEFTIRNRLDIPAMMEKAGYKDRGEFLSVLEKITGNYNWDRDVKKGDTFMVPSKLA”, with -0.335. With “HMETVPMIDLRGMTQEQAEKAIVGLGLTVGTVDHSSSDMPAGQVWFQSVEPKDEVAPGTKVNIIISTGS”, the “soluble fraction (log2)” value is -0.128. Then “HMETYNLDVGDSAVLQYQNVSRISVGNPDVLDAIPLDKSQILLTGKATGGAALIVWDSKGMHMEKVMVHPA”, with -0.152.

On to “HMETYTVSSKDGYANVRNEATVNSDLIAELKNGTLVTKFKEKGEWYYIEFEREDGTPFDYGYIHKSQLK”, for which the “soluble fraction (log2)” value is -0.224.

As for “HMEVALEVPELRGLSMKQATNTLMASGFEVQKVGSGTIYAQFPLPGERLRTGYAVTIRGKTRDLG”, the “soluble fraction (log2)” value was found to be 0.047. As to “HMEVAPEKVLEALNELPEIYKIVLNLYAVENMSHKEIAKKLGISLGSSKSRLSRGRVMLNTLLNR”, the “soluble fraction (log2)” value is -0.866. Then “HMEVDWLEVEKVIVSSSYSWMENSPKVKLLQEYIGVTADGIYGLGTWGAHRTHAVDLGFINLSYPIP”, with -1.69; and “HMEVEADEFQQLLRSGEYVQALDRARANQDIGLRQQQIVQIARHQAASGIQAGAMGSLASLYQF”, with -0.461; and “HMEVHLMPGTVLLREYESNEYRVTVTPEGFYDLNGKVFKSLSAVARHITGVNWSGPRFFGVEP”, with -0.604. Turning to “HMEVLSYYGSRGQEVVNIQTKLKQWGYYKGNIDGIFGNLTYQAVREFQRKNGLKVDGIVGPETLAALGLPT”, the “soluble fraction (log2)” value is -0.479. For “HMEVPQVETEKVEAKLKEAEVLLVKVTDSSLKANATETLAGLRNNLTLQTMDNNGIMAEAEKLLALLRES”, the “soluble fraction (log2)” value is -0.315. As for “HMEVPTGNHIRRWRKSLDITQVKLSSLSGVAQSIIAKIENETVDPRVSTLRKLVEALSRFENP”, the figure is -0.358. As for “HMEVQVGKQVRAFRETLGMTVQQFAERTGFSAALLAQIENRMVSPSLGTLVKIANTFGTTVSSFIG”, the “soluble fraction (log2)” value was -0.38. Consider “HMEVSTDADFEAVGIRAELIPILQKLGFTTVAQLKEVKATKLFNDIPGMRKKLKLDAVQNPTLQEIEGWLK”, for which the “soluble fraction (log2)” value stood at 0.0606.

Consider “HMEVTLEEKLSYVEEYAKVHSHFSFRDLLKKQASKTQIVVTFLAILELMKTGKIQITQEHIFDDIVITAK”, for which the “soluble fraction (log2)” value is -0.649. As for “HMEVTYQETLRVLYNAIDKLPPQTKEIILIGLDGKDNNEIAATLNISVNTVKTLKKNAYKTLRELLVD”, the figure is -0.601.

Regarding “HMEWNPEKQHLLENYITNYSRQLNDTGLFYKNLDWNYIFNLVGVDDQEFLMLKIDEIYDESINVY”, the “soluble fraction (log2)” value was -1.63. For “HMEWNREQLEQIVLQHIRKHGFITRATYTELTGRLKNSALADLKSFAAEGIIKRVGRGNQMHFIVPL”, the “soluble fraction (log2)” value is 0.221. For “HMEWTDHLAEELRSLAVEGEHLEIIANKLGISPGSARAKLVNLNIYNDYQLAHIERLEADTLQAK”, the “soluble fraction (log2)” value is -0.967. As for “HMEYFDDEELDRYKGRTSDSFTDDEAEEFREVMMTMHPEEVKAWNRSLILRDVAMPDQIKDDYIMLAG”, the figure is -2.41; as for “HMEYKYNPADYPYPLNEDIEKVYSAYREKSIGKLEAAVQNLYYTLKQARRDNILSDVKVNEMQQYFLALRN”, 0.0584. For the sequence “HMEYNLTLEELNRDLYIRGEIWNVGDVVKTTDGDEGTIIRKGTNYVVFEDLRRVWLHNLEEVK”, the “soluble fraction (log2)” value is -1.64.

“HMEYREFEAMTIRAIATLPPTQGHVIMLSRFEGLDNKEIALRLNLSLQTVKNTLTQGLKELKNKMRKLP”: the “soluble fraction (log2)” value is -0.119. “HMEYSAAYDRELESIFNLTERGKWEEAEAEVGLLLQQYPEDKTLLRISEWVATQKTILREQAIEDRIRS”: the “soluble fraction (log2)” value is -0.48. For “HMEYSYKLIDLLVDRFSEEGVDPEEAREYINLFHRFSQGLDPDKRDITKYSWDELYRTVNDKKDS”, the “soluble fraction (log2)” value was -0.344. For the sequence “HMEYTVNHYPEKHRFEVVEDGLTAYVEYRLRGDALDIIHTIVPKNLEGRGIAATLVETAYKYAKEQ”, the “soluble fraction (log2)” value is -1.35. With “HMFAAIFADDSGFTTRSKRFGPYVEEIAADWQAVKQLSDEDAKQALVPLVKKIELALSTLQQFVSSV”, the “soluble fraction (log2)” value was -0.405. Take “HMFAATGTVNTEGSSLRLRAEASTSSSVLKQLSHGTQVDVLSGLVDGWYQVSYKGTTGYVSGEYLTVTE”: the “soluble fraction (log2)” value is -0.000126. As for “HMFADLNPDENYGQVYIRTNTIDNLYQTLLDNKTRIHPNGLLELKPWGQKEFSILDPDKNLLTFGES”, the figure is -0.317; as for “HMFAERLKELRKMRRFSQHALAERLGISQQAVGKWETGKSTPDPATLREIADIFEVSVDLLLGR”, 0.124; as for “HMFDDEELDRFAGVPADAYLPADEDEFREVFYTMRPGEVVEWVRSLELRHIEIPNGIKDEIFMMIR”, -3.37.

As for “HMFDEDKLIISIGSKVRIIREPYFGTIGKVVELPPELVKMDTEAMLRVAIIKLDDGEKVTIPRANLEVILS”, the “soluble fraction (log2)” value was -0.87. For the sequence “HMFDEVKDAARRLAALLDQAGGTLTLNDKSAPEEVAALTGMSKKVFKRALGHLMSRSEVVVADGRITKKD”, the “soluble fraction (log2)” value was -0.196. As for “HMFDGRSDAEKTLDLIKTAIDNILKGGAIQEYKIGTRTAKKYDMAELQVLKGEYAAMVAREKQAETMA”, the “soluble fraction (log2)” value is -0.481.

Consider “HMFDGVAAGKPAILDALEDAGGFLPLNSKSSVEEIQASFSFSKRVFKQLIGMLYKERKIVITDDGIRLAD”, for which the “soluble fraction (log2)” value is -0.654. With “HMFDGYQWLKRDIIRGVYQPEEKLRMSLLTNRYGLGVGPLREALSQLVAEHLVTVVSQKGYRVAPM”, the “soluble fraction (log2)” value was -0.0817. With “HMFDKNKPVVVEGENAEVALKKVSKYFNVPTEKLDYTLLGQKSAGLLGIGSKVYQFKVWLKREIP”, the “soluble fraction (log2)” value is at least 0.43. Take “HMFDLENIRLTLARRLNVAAHLRPKYVAGFTLLLKQNFPEQNAEDLLNRLEHNQWLKVNQREIEYSPRLLM”: the “soluble fraction (log2)” value was -1.23. As for “HMFDPAKQMQRIRKYAGMNRKEFSEWLNIPYRTMTDWELGNRTMPVYLLELIVYKVNHEIANA”, the “soluble fraction (log2)” value was -0.349. Take “HMFDREKFIKLGQEFARVAFENVNKRATDRALKTAAKHYGLPSADELLARLGSSEIAARDVVAELYPNL”: the “soluble fraction (log2)” value is -0.28. Regarding “HMFDSYDIYDEAGNTVNTVKGKLSWGHLLEIYDRFDNHIGTVQERVLTFLPKFLMYINGQEIGEIR”, the “soluble fraction (log2)” value is -0.334.

On to “HMFDVNSMIAANIVAILKKQNRKQIDLAGALQTNKQTISKMLNGSRMINAIELKRIAEFLGVKMEELTKL”, for which the “soluble fraction (log2)” value stood at 0.0597. On to “HMFDVRWEQGYALAAAYAQEYGNLDVPRDYKTADGKKLGRWIQSQEQAYEQKKLSEEQISRLEMIGMQWG”, for which the “soluble fraction (log2)” value is 0.0698.

In the case of “HMFEDEPSEREIRISTLLAAFLKQEDGGTAVSRERFLKENSDVAEDLQILLEMADMIQEMAGP”, the “soluble fraction (log2)” value is -0.744. Then “HMFEKIDINFADIHQLKGLPLNSEQINSIIEYRNQNGFIENIYDLKNVNGISIDKVHELKSYIFIIDV”, with -1.96; and “HMFENPRALLEMMISLGNEQGLINMARDIVSAGEFRRLELAAGGDRRKLARMLIDHLVEVAPRLP”, with -0.585. Take “HMFEQFEVENLQELQQEWGDKFNHNLEMARRAFMNFATPEAVKVLEETGMGNHPELLKVFARIGEVLAED”: the “soluble fraction (log2)” value is -1.22. As for “HMFERINLIGVNGTTKKRSALVRLLDGEIVKIGVGDSLNGGQVVDISPATLTYLKSGKSIMLTLPK”, the “soluble fraction (log2)” value was 0.22. Regarding “HMFGQRLRLARKRAGLSMQALAQRMSPPVTAQAISKYEADRMMPSSAVLVGLGKALGVSLDFLMGGQ”, the “soluble fraction (log2)” value worked out at 0.068. As to “HMFHFELNAAKQALEDRKTIDRAKGILMRQRGMSEDDAYKLLRTTAMSQNRKVIDVAQALVTAADLL”, the “soluble fraction (log2)” value is 0.292. As for “HMFINTVELGRAIKRRREELGLSLRDVADVTNVSASTLSRIENGTGKPDADNIARLTGWLDMPIDRVM”, the figure is 0.164. Consider “HMFIRINQTQNSPRKSVQIVESKRDGHKVRTKILRHVGIAMDDVELQKLKSLAQDIIAKMTVETENASKQ”, for which the “soluble fraction (log2)” value amounted to 0.176. “HMFKINQKVKLIAPLPYLKTSENMPMLRPPDLVAIDEIGEVLSLKSPETVEVRFRRGSFLIDIDKLEKVD”: the “soluble fraction (log2)” value is -0.996. “HMFKYLLDTNIVIYVIKKRPIEVMGVFNQNANRMAISAITFSELQHGAEKSVRVQENLNAIEEFTTLIDI”: the “soluble fraction (log2)” value was -0.537. Then “HMFKYRELLDWAKNRFDDLEVSIAPKALALLVESIGTDLRLLDSEIQKLSMYKPLEMISTNDVEDLVA”, with -1.15; and “HMFLTDHEVSKVARKRAHAEYLSSLSWRQRTFGDHGERSKNFEAWYKEHSHLYETEKLYKELYKN”, with 0.245; and “HMFLTPLEEARLVIEEIVIPKNIAVDLSPRPSALRKQQHELIAHYQLKSFSVGNERTKRLRILPKVI”, with -0.46.

As for “HMFMLQAKRVPVSELENFKGIVAEDVVSQSRALILPRGSNLSWLSSSAMQNLSTRLALEGVESISIYL”, the “soluble fraction (log2)” value was -1.8. In the case of “HMFMVAGHLSEKNGYFYAVINYNDSLGNRKTKWMSTGLTVKGNKKRAEAILAEKRRTFQPDEPV”, the “soluble fraction (log2)” value is 0.129. On to “HMFNDPTMEDALVNLKGITNEVLSYLSSSKIKKLEELAEMSVPELKDIVENISDDEASALIMEARKPWF”, for which the “soluble fraction (log2)” value is -1.32. With “HMFNEFEDIPDIISAEGIDPAMREEVAANLKKYYKNPDAMLALAPLEREYYEKLVGILSEKIELKKEN”, the “soluble fraction (log2)” value is -0.361.

Take “HMFNFPEEVRVQLAKSEQLRNLLIPMSETVRDALSGEELWFGRTIFNTTSKKIESWTNPGVWVE”: the “soluble fraction (log2)” value is -1.28.

As to “HMFNIIARQEIDEILYEYKIENSEDYKNRDPEELAEIYENIKTVQENHDLSDDDVEELLKSIFSDY”, the “soluble fraction (log2)” value is -2.2.

Regarding “HMFNKTKVPNFIDMNYYEEIEGNSEYDKFNFADPITKNDDTKAPGTVIDQTPEKGTRIDEEKTVIQLTIA”, the “soluble fraction (log2)” value is -0.149. For “HMFNRAVSDNEALQVREHFDRDATVMSLAKKYGVSTVTIQRILLGKTYRNVGGPLFDKATLKKRMGN”, the “soluble fraction (log2)” value was 0.13. As for “HMFNVKAYEKAVKSYITKRKPLGEALDEEIMDELSVKFGIVDDALEDLFKQIQDAGISIVDKDGNPSPLAL”, the figure is -1.78.

The values are drawn from the domain aggregation screens of Martell et al. (2025).
